Here are results for 15 molecules from publication PMC7847995, “Site-directed mutagenesis identified the key active site residues of alcohol acyltransferase PpAAT1 responsible for aroma biosynthesis in peach fruits” (Horticulture Research, 2021).

The chains are these.
B1: PpAAT1 (Prunus persica; K298F) (protein)
chain: MGSLCPLLFPVNRFEPELITPAKPTPIETKQLSDIDDQDGLRFHFPVIISYKNNPSMKGNDAVMVIREALSRALVYYYPLAGRLREGPNRKLMVECNGEGVLFIEANADVTLEQLGDRILPPCPVLEEFLSNPPGSDGILGCPLLLVQVTRLTCGGFIFGLRINHAMCDAVGLAKFLNAIGEMAQGADSLSVPPVWARELLNARDPPTVTRWHYEYDQLLDSQGSFIAAIDQSNMAQRSFYFGPQQIRALRKHLPPHLSTCSSFELITACVWRCRTLSLRLNPKDTVRISCAVNARGFSINDLCLPSGFYGNAFSIPTAVSTVELLCASPLGYGVELVRKSKAQMDKEYMQSLADFFVIRGRPPLPMGWNVFIVSDNRHTGFGEFDVGWGRPLFAGLARAFSMISFYVRDNNQEEEFGTLVPICLPSTSLERFEEELKKMTLEHVEEISK
notes: codon-optimised, C-terminal polyhistidine tag, pET-30a(+), expressed in E. coli, purified; HxxxD motif HAMCD at H165-D169
B2: PpAAT1 (Prunus persica; F314Y) (protein)
chain: B1 chain with F298K, F314Y
notes: as for B1
B3: PpAAT1 (Prunus persica; A174S) (protein)
chain: B1 chain with A174S, F298K
notes: as for B1
B4: PpAAT1 (Prunus persica; H379V) (protein)
chain: B1 chain with F298K, H379V
notes: as for B1
B5: PpAAT1 (Prunus persica; A170S) (protein)
chain: B1 chain with A170S, F298K
notes: as for B1
B6: PpAAT1 (Prunus persica; F382Y) (protein)
chain: B1 chain with F298K, F382Y
notes: as for B1
B7: PpAAT1 (Prunus persica; K342F) (protein)
chain: B1 chain with F298K, K342F
notes: as for B1
B8: PpAAT1 (Prunus persica; S262A) (protein)
chain: B1 chain with S262A, F298K
notes: as for B1
B9: PpAAT1 (Prunus persica; F264Y) (protein)
chain: B1 chain with F264Y, F298K
notes: as for B1
B10: PpAAT1 (Prunus persica) (protein)
chain: B1 chain with F298K
notes: as for B1
B11: PpAAT1 (Prunus persica; R339V) (protein)
chain: B1 chain with F298K, R339V
notes: as for B1

Residue numbers refer to the chain shown, from its start. Names may count otherwise.

Substrate in the first data set: CCCCCCC(O)CCC(=O)SCCNC(=O)CCNC(=O)[C@H](O)C(C)(C)COP(=O)(O)OP(=O)(O)OC[C@H]1O[C@@H](n2cnc3c(N)ncnc32)[C@H](O)[C@@H]1OP(=O)(O)O
The experiment in a line: GC-MS of gamma-decalactone formation. It counts as biochemical, Prunus persica. Particulars: internal esterification to gamma-decalactone; ±SE, n = 3. The text has this:
GC-MS of gamma-decalactone formation on PpAAT1
Broadly, the kcat is the maximal rate divided by the concentration of active sites. By kcat/Km is commonly meant the second-order rate constant that governs catalysis at low substrate concentration. B1: the Km was 10.1014 (±1.4928) mM, the kcat came out at 0.451 ± 0.0624 s⁻¹ and the specificity constant (kcat/Km) was found to be 44.1 ± 7.9 M⁻¹ s⁻¹.

As to B2, the Km was 4.2018 (±0.5997) mM, the kcat was determined as 1.11 ± 0.119 s⁻¹ and the specificity constant (kcat/Km) worked out at 265 ± 31.1 M⁻¹ s⁻¹.

In the case of B3, the Km was 9.1599 (±1.0952) mM, the kcat was 0.399 ± 0.048 s⁻¹ and the kcat/Km was 43.6 ± 6.9 M⁻¹ s⁻¹.

For the molecule B4, the Km is reported as 8.2152 (±0.9510) mM, the catalytic constant (kcat) turned out to be 0.362 ± 0.0249 s⁻¹ and the specificity constant (kcat/Km) came out at 44.1 ± 3.6 M⁻¹ s⁻¹.

B5: the Km is reported as 4.5852 (±0.6923) mM, the catalytic constant (kcat) turned out to be 1.28 ± 0.1 s⁻¹ and the kcat/Km was 278 ± 19.4 M⁻¹ s⁻¹.

In the case of B6, the Km was 9.0224 (±0.7366) mM, the kcat came out at 0.373 ± 0.0138 s⁻¹ and the catalytic efficiency (kcat/Km) was found to be 41.3 ± 2.7 M⁻¹ s⁻¹.

Consider B7, for which the Km is recorded as 5.0532 (±0.3364) mM, the kcat is 1.32 ± 0.0927 s⁻¹ and the kcat/Km turned out to be 262 ± 74.2 M⁻¹ s⁻¹.

For B8, the Km is given as 2.9920 (±0.3836) mM, the turnover number (kcat) was found to be 2.36 ± 0.364 s⁻¹ and the specificity constant (kcat/Km) came to 790 ± 190 M⁻¹ s⁻¹.

With B9, the Km is listed as 3.0241 (±0.5145) mM, the kcat came out at 2.53 ± 0.287 s⁻¹ and the specificity constant (kcat/Km) came to 836 ± 122 M⁻¹ s⁻¹.

Take B10: the Km is on record as 2.6187 (±0.2511) mM, the turnover number (kcat) came out at 2.72 ± 0.146 s⁻¹ and the kcat/Km stood at 1040 ± 91.6 M⁻¹ s⁻¹.

For the molecule B11, the Km was 8.8556 (±1.4954) mM, the kcat stood at 0.322 ± 0.0547 s⁻¹ and the kcat/Km worked out at 36.3 ± 5.1 M⁻¹ s⁻¹.

Another data set deals with T1, PpAAT1 (Prunus persica, UniProt M5WU76).
T1 construct: gene AAT1; codon-optimised, C-terminal polyhistidine tag, pET-30a(+), expressed in E. coli, purified; HxxxD motif HAMCD at H165-D169
T1 sequence (M5WU76 entry or part of it): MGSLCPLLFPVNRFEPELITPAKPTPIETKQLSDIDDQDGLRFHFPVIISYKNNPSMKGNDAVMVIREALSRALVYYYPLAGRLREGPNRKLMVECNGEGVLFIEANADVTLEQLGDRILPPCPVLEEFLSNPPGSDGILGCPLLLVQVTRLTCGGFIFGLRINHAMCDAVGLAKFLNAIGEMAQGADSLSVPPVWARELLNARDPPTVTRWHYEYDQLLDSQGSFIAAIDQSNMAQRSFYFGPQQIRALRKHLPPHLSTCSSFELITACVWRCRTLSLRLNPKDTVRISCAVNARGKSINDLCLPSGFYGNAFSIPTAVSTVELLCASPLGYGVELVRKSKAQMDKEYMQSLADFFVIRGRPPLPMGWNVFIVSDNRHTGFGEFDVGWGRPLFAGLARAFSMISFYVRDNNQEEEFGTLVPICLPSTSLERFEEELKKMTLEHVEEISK
The experiment in a line: esterification assay. It counts as biochemical. The conditions noted are these: co-substrate acetyl-CoA; product decyl acetate.
Regarding `CCCCCCCCCCO` [decanol], the Kcat/Km entry is “acetyl–CoA and four different alcohols (propanol, hexanol, benzyl alcohol, and decanol)”.

Still in this data set, the particulars now being: co-substrate acetyl-CoA; product hexyl acetate.
As to `CCCCCCO` [hexanol], the Kcat/Km result is recorded as “a higher Kcat/Km ratio was observed in all substitutions when hexanol was used as the substrate”.

Still in this data set, the particulars now being: co-substrate acetyl-CoA; product phenylmethyl acetate.
For the molecule `OCc1ccccc1` [benzyl alcohol], the Kcat/Km result is “acetyl–CoA and four different alcohols (propanol, hexanol, benzyl alcohol, and decanol)”.

Still in this data set, the particulars now being: co-substrate acetyl-CoA; product propyl acetate.
Turning to `CCCO` [propanol], the Kcat/Km result was “acetyl–CoA and four different alcohols (propanol, hexanol, benzyl alcohol, and decanol)”.
